Measurements as given in paper PMC4143292, “An Enzymatic Platform for the Synthesis of Isoprenoid Precursors” (PLoS ONE, 2014).

System: C=C(OP(=O)(O)O)C(=O)O
Test: purified protein
Conditions: Hepes pH 8.0, 25 C, apparent

PK (pyruvate kinase) (Oryctolagus cuniculus), sequence (chain, as listed by the source): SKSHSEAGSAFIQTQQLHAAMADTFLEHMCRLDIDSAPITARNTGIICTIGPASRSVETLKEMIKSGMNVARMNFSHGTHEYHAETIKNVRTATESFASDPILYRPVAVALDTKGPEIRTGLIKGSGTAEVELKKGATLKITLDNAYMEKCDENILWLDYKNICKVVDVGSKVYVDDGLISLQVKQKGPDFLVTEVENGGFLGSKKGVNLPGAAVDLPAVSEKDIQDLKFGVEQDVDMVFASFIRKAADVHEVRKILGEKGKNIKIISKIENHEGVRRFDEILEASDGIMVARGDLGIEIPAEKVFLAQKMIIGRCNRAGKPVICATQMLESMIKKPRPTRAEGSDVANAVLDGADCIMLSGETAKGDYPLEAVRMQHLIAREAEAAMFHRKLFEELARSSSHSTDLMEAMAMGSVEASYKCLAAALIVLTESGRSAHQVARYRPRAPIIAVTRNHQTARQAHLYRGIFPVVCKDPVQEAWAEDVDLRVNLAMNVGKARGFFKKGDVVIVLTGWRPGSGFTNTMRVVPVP

Q: “PK (pyruvate kinase) (Oryctolagus cuniculus)” was tested. Which Km did it give?
A: 0.040 mM

Q: And the kcat?
A: 160 s⁻¹
